Experimental data from patent US20230372526A1, “PREPARATION METHOD FOR BIS-S[…] ANTIBODY-DRUG CONJUGATE” (MABWELL (SHANGHAI) BIOSCIENCE CO., LTD., priority 2020, published 2023).

Experiment: Hydrolysis of Pertuzumab conjugated samples obtained using different small molecule compounds, hydrolysis percentage by Native MS
Format: physicochemical
Method: The analysis conditions were as follows: • Capillary activation: the capillary was rinsed with 0.1 mol/L sodium hydroxide for 10 min, 0.1 mol/L hydrochloric acid for 5 min and water for injection for 2 min respectively at 20 psi; and then rinsed with SDS-MW-Gel Buffer for 10 min at 70 psi; afterwards, pre-separation was performed for 10 min at 20 psi, at a column temperature of 25° C. and a voltage of −15 kv. The program was run: at 70 psi, the capillary was rinsed with 0.1 mol/L sodium hydroxide for 3 min, 0.1 mol/L hydrochloric acid for 1 min and water for injection for 1 min respectively; then the gel was poured for 10 min, the sample was loaded for 40 s at −5 kv, and the separation program was run ([…], 20 psi). The column temperature was set to 25° C., the voltage for separation was set to −15 kv, and the separation was performed for 40 min. • (4) Size exclusion chromatography (SEC-HPLC): • Sample treatment: the sample was diluted to 2.0-3.0 mg/ml with the mobile phase, and then was centrifuged at 12000 rpm for 10 min; and the supernatant was taken for analysis. • Chromatographic column: TOSOH, TSKgel G3000SWXL, 5 μm, 7.8 mm×300 mm; • Mobile phase: 100 mM PB+200 mM arginine hydrochloride, 5% isopropanol (pH 6.8); • Flow rate: 0.6 mL/min; • Detection wavelength: 280 nm; • Column temperature: 30° C.; • Loading volume: 10 uL; • Elution gradient: isocratic elution. • (5) Native MS: • Chromatographic column: ACQUITY UPLC Protein BEH SEC 200A (1.7 μm, 2.1 mm×150 mm); • Mobile phase: 50 mM ammonium acetate; • Running time: 12 min; • Flow rate: 0.065 mL/min; • Loading volume: 2 μL; • Column temperature: 30° C.; • Detection wavelength: 280 nm; • Capillary: 3.0 kV; • Cone voltage: 140 V; • Source offset: 80 V; • Source temperature: 125° C.; • Desolvation temperature: 250° C.; • Desolvation gas flow: 600 L/h. • (6) LC-MS:
Pertuzumab was reduced and conjugated as described in section a in Example 2. Conjugated samples obtained using different small molecule compounds were subjected to hydrolysis at 35° C. for a time period in the range of 3-18 hours, in 50 mM sodium dihydrogen phosphate-disodium hydrogen phosphate buffer, pH 7.8. The hydrolysis systems were sampled at different time points, and detected by Native MS.
Pertuzumab was reduced and conjugated as described in section a in Example 2. Conjugated samples obtained using different small molecule compounds were displaced to different hydrolysis solution systems (A: 50 mM sodium dihydrogen phosphate-disodium hydrogen phosphate buffer, pH 7.8; B: 50 mM sodium dihydrogen phosphate-disodium hydrogen phosphate buffer+3% arginine, pH 7.8; C: 50 mM potassium dihydrogen phosphate-dipotassium hydrogen phosphate buffer, pH 7.8; and D: 50 mM tromethamine-hydrochloric acid buffer, pH 7.8) for hydrolysis. Then the hydrolysis systems were sampled at different time points, and detected by Native MS.

CCC(C)[C@@H]([C@@H](CC(=O)N1CCC[C@H]1[C@H](OC)[C@@H](C)C(=O)N[C@H](C)[C@@H](O)c1ccccc1)OC)N(C)C(=O)[C@@H](NC(=O)[C@H](C(C)C)N(C)C(=O)OCc1ccc(NC(=O)[C@H](CCCNC(N)=O)NC(=O)[C@@H](NC(=O)COCCOCCOCCOc2c(OC)cc(N3C(=O)C(Sc4ccccc4)=C(Sc4ccccc4)C3=O)cc2OC)C(C)C)cc1)C(C)C (stereo partly shown) [A-2]
hydrolysis of conjugated samples (in words) (50 mM PB pH 7.8, 35° C., summary of Table 3-2): relatively low percentage of hydrolysis
6 h hydrolysis percentage (Pertuzumab conjugate, 50 mM PB pH 7.8, 35° C., 6 h, Native MS): 30.33%
18 h hydrolysis percentage (Pertuzumab conjugate, 50 mM PB pH 7.8, 35° C., 18 h, Native MS): 48.43%
3 h hydrolysis percentage (Pertuzumab conjugate, 50 mM sodium dihydrogen phosphate-disodium hydrogen phosphate buffer, pH 7.8, 35° C., 3 h, Native MS): 17.85%
